According to IntAct's records for PubMed 27013965:

Target: lrp6_human LRP6 (UniProt O75581)
Chain of UniProt O75581 (O75581 whole entry): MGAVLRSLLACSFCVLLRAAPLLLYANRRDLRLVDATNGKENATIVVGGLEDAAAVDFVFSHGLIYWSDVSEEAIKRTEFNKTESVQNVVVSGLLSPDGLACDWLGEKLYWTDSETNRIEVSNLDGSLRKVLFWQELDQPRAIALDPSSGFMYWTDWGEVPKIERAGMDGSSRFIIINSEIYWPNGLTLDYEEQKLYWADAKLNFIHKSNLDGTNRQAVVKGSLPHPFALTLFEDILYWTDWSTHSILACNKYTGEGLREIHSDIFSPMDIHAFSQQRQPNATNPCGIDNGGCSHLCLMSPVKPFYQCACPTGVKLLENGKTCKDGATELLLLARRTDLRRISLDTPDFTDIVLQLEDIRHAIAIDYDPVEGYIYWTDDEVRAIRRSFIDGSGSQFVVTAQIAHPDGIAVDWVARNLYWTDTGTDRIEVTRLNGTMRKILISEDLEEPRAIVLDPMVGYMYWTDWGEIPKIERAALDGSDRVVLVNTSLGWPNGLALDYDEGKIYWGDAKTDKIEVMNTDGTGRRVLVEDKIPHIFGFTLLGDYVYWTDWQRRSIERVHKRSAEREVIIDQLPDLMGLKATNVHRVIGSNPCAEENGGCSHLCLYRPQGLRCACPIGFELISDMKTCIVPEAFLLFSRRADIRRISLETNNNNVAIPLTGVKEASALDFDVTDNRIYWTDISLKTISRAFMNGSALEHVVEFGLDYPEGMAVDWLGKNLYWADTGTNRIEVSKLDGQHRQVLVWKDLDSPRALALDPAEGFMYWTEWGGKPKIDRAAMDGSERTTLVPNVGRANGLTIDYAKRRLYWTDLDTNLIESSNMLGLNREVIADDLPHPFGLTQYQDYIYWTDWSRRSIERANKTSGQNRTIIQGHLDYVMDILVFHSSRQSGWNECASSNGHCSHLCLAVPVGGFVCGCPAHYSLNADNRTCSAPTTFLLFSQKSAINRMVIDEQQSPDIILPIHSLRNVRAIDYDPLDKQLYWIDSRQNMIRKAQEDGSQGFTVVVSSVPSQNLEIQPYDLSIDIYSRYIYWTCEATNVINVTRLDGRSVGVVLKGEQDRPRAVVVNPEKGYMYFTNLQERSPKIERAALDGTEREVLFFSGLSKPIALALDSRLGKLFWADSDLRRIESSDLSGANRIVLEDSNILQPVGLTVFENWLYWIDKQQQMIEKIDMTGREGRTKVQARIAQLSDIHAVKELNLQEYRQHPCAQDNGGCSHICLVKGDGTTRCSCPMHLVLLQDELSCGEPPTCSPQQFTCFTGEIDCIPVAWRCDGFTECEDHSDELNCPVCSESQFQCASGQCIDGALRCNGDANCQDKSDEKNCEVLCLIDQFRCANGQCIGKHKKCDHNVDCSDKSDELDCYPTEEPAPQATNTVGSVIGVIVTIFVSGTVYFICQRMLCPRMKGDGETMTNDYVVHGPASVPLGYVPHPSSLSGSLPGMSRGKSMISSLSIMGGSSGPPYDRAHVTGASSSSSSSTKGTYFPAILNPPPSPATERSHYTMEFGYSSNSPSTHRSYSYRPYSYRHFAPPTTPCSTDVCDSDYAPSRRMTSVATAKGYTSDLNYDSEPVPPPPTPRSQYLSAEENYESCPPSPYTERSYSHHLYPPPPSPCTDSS

| effect of a mutation on the interaction | Substance |
| --- | --- |
| decreasing interaction strength | Leucine-rich repeat serine/threonine-protein kinase 2 (Homo sapiens), Q5S007 R1398H |
| decreasing interaction strength | Leucine-rich repeat serine/threonine-protein kinase 2 (Homo sapiens), Q5S007 R1441G |
